B1: PTPRD (parent)
chain: LTKLREMGREKCHQYWPAERSARY

Variants of: B1
Assay: protein stability index of a GFP-peptide fusion (GPS, HEK-293T) (PSI 1-6); higher = more stable
Conditions: c terminus: a fixed tail appended
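Note: lentivirally expressed fusions sorted by FACS into six bins by GFP to DsRed ratio, PSI derived from sequencing read proportions per bin multiplied by bin number.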

Protein stability index: each site, then its substitutions
L4: D 3.29, H 2.84, E 3.55, P 2.88, T 2.77, M 2.65, C 2.12, N 3.04, F 2.63, V 2.48, G 3.55, K 2.8, Y 2.63, S 2.99, R 2.92, Q 3.1, W 2.12, I 2.58, A 2.72
L1: V 2.39, W 2.43, T 2.86, S 2.59, Y 2.21
Y15: M 2.53, G 3.46, R 2.82, F 2.86, N 3.19, E 3.54, L 2.46, T 2.82, Q 2.79, C 2.6, A 2.93, P 2.64, S 2.92, D 3.31, W 1.99, H 3.41, K 3.1, I 2.59
T2: K 2.92, E 3.03, Q 2.95, P 2.53, V 1.99, S 2.16, W 1.78, R 2.3, G 2.77, L 2.15, N 2.29, I 2.22, F 1.96, D 2.83, H 2.25, A 2.69, M 2.29, Y 1.97, C 1.82
M7: N 2.77, E 3.25, V 2.56, G 2.64, A 2.57, S 2.55, L 1.9, K 2.98, C 2.23, I 2.54, T 2.71, R 2.35, H 2.75, D 3.14, Y 2.7, P 2.67, F 2.41, Q 2.56, W 1.67
Q14: C 1.82, H 2.95, G 2.46, F 1.84, R 2.04, I 2.27, A 2.46, D 2.47, K 2.48, M 2.04, P 1.69, T 2.62, V 2.61, N 2.64, L 2.5, W 1.41, S 2.68, E 3.05, Y 1.85
R9: W 2.04, C 2.15, F 2.38, E 2.86, M 2.8, I 2.29, T 2.65, N 2.68, Y 2.16, Q 3.05, V 1.92, P 2.53, A 2.64, G 2.79, S 2.81, L 2.73, D 3.48, K 2.84, H 2.73
K11: Y 2.39, M 2.64, S 2.4, W 1.89, D 3.21, N 2.74, Q 2.44, L 2.21, C 2.34, T 2.5, E 3.17, F 2.14, P 2.6, I 2.53, V 2.53, R 2.26, H 2.4, G 2.61, A 3.23
G8: I 1.29, S 1.94, Q 3.13, M 2.07, R 2.53, L 1.67, W 1.85, H 1.93, Y 2.03, N 2.29, A 2.02, F 1.73, T 2.95, P 2.44, K 2.04, E 2.65, V 2.58, D 3.22, C 2.39
H13: Q 2.83, M 1.97, K 2.53, R 2.31, P 2.43, Y 2.38, S 2.28, V 2.02, W 1.77, D 3.17, N 2.79, A 2.66, F 2.15, I 2.33, T 2.65, G 2.66, L 2.77, E 2.74, C 1.86
C12: V 2.35, S 2.66, W 2.25, T 3.38, L 2.39, A 3.2, M 2.1, P 3.09, Y 2.98, N 3.04, R 2.51, F 2.58, E 3.11, K 2.27, H 2.83, D 3.48, Q 2.83, I 2.35, G 2.98
A18: G 2.06, L 1.87, V 2.26, P 2.39, Y 1.97, T 2.27, K 2.48, D 2.49, I 2.21, R 2.13, N 2.16, C 2.31, Q 2.53, F 2.21, E 2.73, H 2.19, M 1.97, W 2.16, S 2.17
E19: A 2.31, G 2.18, F 2.29, I 1.91, C 2.21, D 2.81, H 2.06
P17: C 1.79, M 1.97, L 2.01, V 1.74, K 2.58, G 2.29, H 1.75, W 2.04, D 2.79, F 1.99, S 2.09, T 2.32, I 2.25, Q 2.16, A 2.12, R 2.37, N 1.84, Y 2.17, E 2.5
W16: L 2.96, Q 3.26, D 3.8, S 2.84, K 3.03, I 2.7, F 2.91, R 3.29, E 3.47, N 3.5, P 3.27, Y 2.58, A 3.15, H 2.91, T 2.6, V 2.76, G 3.25, C 2.8, M 2.85
E10: C 2.65, K 2.03, V 2.28, A 2.08, F 2.13, L 1.99, Y 2.48, Q 1.97, N 2.46, R 2.42, D 2.3, T 1.87, P 2.71, W 2.15, S 2.3, H 2.05, G 2.25, I 1.91, M 1.83
K3: G 2.64, F 2.4, T 2.63, I 2.08, Q 2.33, R 2.43, W 1.88, S 2.73, A 2.7, C 2.34, P 2.66, V 1.92, N 3.09, H 2.41, E 3.3, D 2.9, Y 2.44, M 2.41, L 2.21
E6: D 2.66, R 2.38, G 2.23, S 1.98, F 2.45, L 2.13, K 1.95, W 1.82, H 2.09, I 1.9, A 2.41, Y 1.7, C 1.75, P 2.33, M 2.18, Q 2.1, N 1.8, T 2.52, V 1.73
R5: K 2.29, H 2.58, W 2.24, M 2.39, P 2.75, Y 2.23, N 2.76, C 2.62, S 3.17, A 2.53, T 2.38, F 2.21, L 2.4, G 3.18, E 3.16, D 3.32, Q 2.91, I 2.44, V 2.18

From the supplement of paper PMC10567573
